Data on 26 substances can be found in patent publication US20250011379.

One data set addresses soluble human C3b (UniProt P01024).
The target in the next data set is human C4b (UniProt P0C0L5).
Sequence of human C4b (P0C0L5 whole entry, looked up): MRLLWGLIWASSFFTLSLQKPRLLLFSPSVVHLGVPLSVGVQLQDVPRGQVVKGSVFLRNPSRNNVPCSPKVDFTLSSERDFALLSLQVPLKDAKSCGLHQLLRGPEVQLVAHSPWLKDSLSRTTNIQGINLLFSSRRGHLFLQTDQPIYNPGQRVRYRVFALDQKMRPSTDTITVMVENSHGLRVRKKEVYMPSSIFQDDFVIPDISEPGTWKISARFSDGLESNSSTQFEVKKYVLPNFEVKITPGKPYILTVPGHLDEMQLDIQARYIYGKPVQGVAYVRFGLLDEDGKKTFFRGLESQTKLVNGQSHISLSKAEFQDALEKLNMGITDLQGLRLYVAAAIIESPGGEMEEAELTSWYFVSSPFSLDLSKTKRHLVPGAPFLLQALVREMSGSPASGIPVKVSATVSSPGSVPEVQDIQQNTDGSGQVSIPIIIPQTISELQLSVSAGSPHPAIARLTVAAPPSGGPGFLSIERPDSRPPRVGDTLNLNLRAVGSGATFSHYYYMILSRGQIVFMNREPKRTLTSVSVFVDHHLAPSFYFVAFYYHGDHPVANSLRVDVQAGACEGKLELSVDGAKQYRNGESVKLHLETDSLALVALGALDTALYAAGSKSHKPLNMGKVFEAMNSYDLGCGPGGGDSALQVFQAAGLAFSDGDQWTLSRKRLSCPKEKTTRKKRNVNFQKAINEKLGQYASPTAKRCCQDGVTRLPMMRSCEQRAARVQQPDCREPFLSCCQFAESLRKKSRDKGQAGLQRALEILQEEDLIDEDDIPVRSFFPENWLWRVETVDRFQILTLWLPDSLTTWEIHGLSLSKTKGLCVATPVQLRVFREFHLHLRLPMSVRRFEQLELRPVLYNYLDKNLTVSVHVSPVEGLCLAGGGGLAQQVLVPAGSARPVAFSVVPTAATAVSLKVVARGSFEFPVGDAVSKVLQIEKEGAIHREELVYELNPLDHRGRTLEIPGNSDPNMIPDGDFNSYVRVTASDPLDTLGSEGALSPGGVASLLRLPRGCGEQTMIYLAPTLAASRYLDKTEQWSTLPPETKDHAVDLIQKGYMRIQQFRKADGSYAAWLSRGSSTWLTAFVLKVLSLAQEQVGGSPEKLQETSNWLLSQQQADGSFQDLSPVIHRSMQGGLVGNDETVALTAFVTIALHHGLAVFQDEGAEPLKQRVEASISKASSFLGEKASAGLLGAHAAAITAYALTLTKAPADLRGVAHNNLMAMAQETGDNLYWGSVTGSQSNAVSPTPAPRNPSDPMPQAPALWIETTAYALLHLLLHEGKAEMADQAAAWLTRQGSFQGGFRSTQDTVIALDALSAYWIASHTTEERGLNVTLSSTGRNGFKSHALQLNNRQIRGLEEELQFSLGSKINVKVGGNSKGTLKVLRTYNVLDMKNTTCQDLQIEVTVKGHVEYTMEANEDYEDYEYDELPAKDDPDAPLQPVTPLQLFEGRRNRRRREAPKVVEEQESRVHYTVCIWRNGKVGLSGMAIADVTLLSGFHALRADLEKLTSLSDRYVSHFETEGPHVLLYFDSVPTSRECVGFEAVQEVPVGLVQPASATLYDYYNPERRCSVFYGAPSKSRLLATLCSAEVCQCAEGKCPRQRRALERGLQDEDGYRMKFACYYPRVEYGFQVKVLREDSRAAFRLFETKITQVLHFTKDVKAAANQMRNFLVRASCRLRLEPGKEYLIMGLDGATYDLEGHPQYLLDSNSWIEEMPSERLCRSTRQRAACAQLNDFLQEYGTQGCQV

Sequence of soluble human C3b (P01024 whole entry, looked up, tested part not stated): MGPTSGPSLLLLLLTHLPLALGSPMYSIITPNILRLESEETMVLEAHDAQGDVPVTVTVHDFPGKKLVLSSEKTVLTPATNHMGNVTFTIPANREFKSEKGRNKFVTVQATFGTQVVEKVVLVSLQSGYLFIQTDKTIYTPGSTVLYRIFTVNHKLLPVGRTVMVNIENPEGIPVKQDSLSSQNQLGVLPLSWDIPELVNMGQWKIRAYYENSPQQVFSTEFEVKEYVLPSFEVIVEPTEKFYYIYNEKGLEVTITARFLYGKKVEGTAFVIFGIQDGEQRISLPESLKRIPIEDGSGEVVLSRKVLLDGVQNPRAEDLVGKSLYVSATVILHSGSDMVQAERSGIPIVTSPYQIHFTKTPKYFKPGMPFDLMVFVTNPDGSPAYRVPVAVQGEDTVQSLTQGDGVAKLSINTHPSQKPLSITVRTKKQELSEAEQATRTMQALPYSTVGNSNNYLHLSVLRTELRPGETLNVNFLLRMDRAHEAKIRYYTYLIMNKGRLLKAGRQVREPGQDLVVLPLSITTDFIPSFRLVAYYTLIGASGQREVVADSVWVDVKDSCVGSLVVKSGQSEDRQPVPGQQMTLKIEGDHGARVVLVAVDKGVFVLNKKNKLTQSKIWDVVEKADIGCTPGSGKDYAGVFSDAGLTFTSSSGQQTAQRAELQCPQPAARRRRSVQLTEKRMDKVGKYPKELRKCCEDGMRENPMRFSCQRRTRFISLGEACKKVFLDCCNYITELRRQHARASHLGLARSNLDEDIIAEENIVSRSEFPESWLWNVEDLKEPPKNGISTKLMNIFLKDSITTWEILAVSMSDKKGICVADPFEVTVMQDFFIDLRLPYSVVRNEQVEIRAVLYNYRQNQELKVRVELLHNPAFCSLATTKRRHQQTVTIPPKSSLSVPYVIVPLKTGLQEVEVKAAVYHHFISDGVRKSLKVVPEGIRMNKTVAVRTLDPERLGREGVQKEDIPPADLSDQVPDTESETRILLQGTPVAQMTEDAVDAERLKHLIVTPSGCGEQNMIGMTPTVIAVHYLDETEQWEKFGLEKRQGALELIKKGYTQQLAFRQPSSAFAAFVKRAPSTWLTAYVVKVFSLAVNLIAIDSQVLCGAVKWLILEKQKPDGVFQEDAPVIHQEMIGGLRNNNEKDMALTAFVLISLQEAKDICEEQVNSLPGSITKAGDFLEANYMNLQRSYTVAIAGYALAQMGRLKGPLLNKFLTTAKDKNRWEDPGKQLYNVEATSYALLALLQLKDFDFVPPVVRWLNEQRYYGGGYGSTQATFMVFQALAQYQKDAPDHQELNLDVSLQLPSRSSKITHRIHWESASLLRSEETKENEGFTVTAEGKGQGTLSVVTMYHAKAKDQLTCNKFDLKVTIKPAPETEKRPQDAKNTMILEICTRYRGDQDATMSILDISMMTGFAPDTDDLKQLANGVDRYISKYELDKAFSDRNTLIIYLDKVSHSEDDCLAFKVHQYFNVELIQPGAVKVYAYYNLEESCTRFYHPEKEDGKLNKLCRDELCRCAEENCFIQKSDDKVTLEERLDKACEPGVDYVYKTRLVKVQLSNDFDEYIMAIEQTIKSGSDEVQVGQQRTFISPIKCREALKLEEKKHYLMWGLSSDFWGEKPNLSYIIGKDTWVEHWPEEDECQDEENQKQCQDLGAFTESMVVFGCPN
Sequence of Const. No. 11: HSA-GGSSGG-hCFI; Δ(D497) (chain): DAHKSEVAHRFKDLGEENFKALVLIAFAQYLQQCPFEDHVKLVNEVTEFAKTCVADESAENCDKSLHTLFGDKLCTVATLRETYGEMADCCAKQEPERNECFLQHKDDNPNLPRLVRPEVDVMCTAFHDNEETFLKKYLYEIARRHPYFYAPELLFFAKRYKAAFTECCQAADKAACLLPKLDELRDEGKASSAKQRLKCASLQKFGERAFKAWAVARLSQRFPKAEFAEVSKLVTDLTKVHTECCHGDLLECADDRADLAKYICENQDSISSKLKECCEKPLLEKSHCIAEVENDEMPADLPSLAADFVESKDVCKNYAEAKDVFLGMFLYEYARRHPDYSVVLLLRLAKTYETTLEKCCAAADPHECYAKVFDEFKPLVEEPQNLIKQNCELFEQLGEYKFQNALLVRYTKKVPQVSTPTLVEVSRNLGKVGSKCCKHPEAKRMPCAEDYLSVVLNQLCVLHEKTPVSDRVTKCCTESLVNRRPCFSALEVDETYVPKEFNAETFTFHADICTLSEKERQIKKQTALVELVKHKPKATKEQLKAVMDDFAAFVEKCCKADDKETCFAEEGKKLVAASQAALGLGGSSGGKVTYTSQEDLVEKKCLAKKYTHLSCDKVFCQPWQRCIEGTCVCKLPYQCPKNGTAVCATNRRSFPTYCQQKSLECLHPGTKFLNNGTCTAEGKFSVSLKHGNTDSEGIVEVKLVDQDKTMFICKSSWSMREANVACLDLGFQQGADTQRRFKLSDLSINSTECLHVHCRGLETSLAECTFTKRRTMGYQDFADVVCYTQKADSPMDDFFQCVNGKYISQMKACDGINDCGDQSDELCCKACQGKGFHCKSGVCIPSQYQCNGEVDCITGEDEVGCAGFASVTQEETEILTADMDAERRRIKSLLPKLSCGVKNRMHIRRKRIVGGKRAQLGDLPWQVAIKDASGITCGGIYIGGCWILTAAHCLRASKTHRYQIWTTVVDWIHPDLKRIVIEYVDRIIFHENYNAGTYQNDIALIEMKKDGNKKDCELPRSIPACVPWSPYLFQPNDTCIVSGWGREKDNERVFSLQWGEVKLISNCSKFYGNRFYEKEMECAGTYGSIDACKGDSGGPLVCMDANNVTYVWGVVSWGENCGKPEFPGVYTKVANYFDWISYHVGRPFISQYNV

Regarding Const. No. 31: HSA-GGSSGG-hCFI; N402K, the iC3b ref fold with soluble human C3b is 1.53 fold. Further, in the data set with human C4b, the C4c ref fold worked out at 1.14 fold.
As for Const. No. 72: HSA-GGSSGGSSGG-Cyno CFI, the iC3b ref fold in the data set with soluble human C3b came out at 3.17 fold. For the same substance, the C4c ref fold in the data set with human C4b was found to be 0.34 fold.
For Const. No. 11: HSA-GGSSGG-hCFI; Δ(D497) the same measures were -0.01 fold and -0.02 fold.
For “Const. No. 18: HSA-GGSSGG-hCFI; S499G; I500K” the same measures were 0.16 fold and 0.08 fold.
For Const. No. 34: HSA-GGSSGG-hCFI; H554K the same measures were 2.11 fold and 2.62 fold.
For the substance Const. No. 53: HSA-GGSSGG-hCFI; D395G, the iC3b ref fold in the data set with soluble human C3b turned out to be 1.52 fold. Also, the C4c ref fold with human C4b came to 0.8 fold.
Turning to Const. No. 54: HSA-GGSSGG-hCFI; D395K, the iC3b ref fold with soluble human C3b worked out at 2.06 fold. In the data set with human C4b, the C4c ref fold came to 1.61 fold.
For Const. No. 14: HSA-GGSSGG-hCFI; S499A the same measures were 1.36 fold and 0.45 fold.
For Const. No. 52: HSA-GGSSGG-hCFI; D395A the same measures were 1.55 fold and 0.78 fold.
For Const. No. 39: HSA-GGSSGG-hCFI; A55P the same measures were 1.1 fold and 2.83 fold.
With Const. No. 9: HSA-GGSSGG-hCFI; P433F, the iC3b ref fold in the data set with soluble human C3b was 0.07 fold. In addition, the C4c ref fold with human C4b is 0.05 fold.
For Const. No. 38: HSA-GGSSGG-hCFI; N52A the same measures were 0.72 fold and 2.93 fold.
With “Const. No. 95: HSA linked with CFI (CFI-HSA), wild type”, the iC3b ref fold with soluble human C3b is 1 fold. In addition, in the data set with human C4b, the C4c ref fold stood at 1 fold.
Turning to Const. No. 92: HSA-GGSSGG-hCFI; N422A, the iC3b ref fold with soluble human C3b came to 0.72 fold. In addition, in the data set with human C4b, the C4c ref fold amounted to 1.52 fold.
For Const. No. 29: HSA-GGSSGG-hCFI; E401F the same measures were 1.64 fold and 0.5 fold.
For “Const. No. 37: HSA-GGSSGG-hCFI; K51R; N52A; A55P; T59M; R61G; F64Y” the same measures were 1.12 fold and 3.59 fold.
For “Const. No. 44: HSA-GGSSGG-hCFI; Δ(275-CAGFASVAQE-284)(SEQ ID NO: 31) > CEEDRQQNIPKGLARSAQGEAEIETE (SEQ ID NO: 32) + GGSSGG (SEQ ID NO: 6) + CR1(ccp15-17)” the same measures were 0.03 fold and 3.47 fold.
With Const. No. 1: HSA-GGSSGG-hCFI; F559W, the iC3b ref fold with soluble human C3b came out at 1.39 fold. Also, the C4c ref fold with human C4b turned out to be 1.08 fold.
For Const. No. 46: HSA-GGSSGG-hCFI; R484K the same measures were 1.21 fold and 0.76 fold.
Turning to Const. No. 70: HSA-GGSSGGSSGG-Rat CFI, the iC3b ref fold with soluble human C3b was determined as 0.94 fold. Moreover, the C4c ref fold in the data set with human C4b stood at 4.12 fold.
For “Const. No. 68: HSA-GGSSGG-hCFI-GGSSGG-hCR1; CCP1; CCP2; CCP3-GGSSGG-hCR1; CCP15; CCP16; CCP17” the same measures were 0.06 fold and 3.75 fold.
For Const. No. 73: HSA-GGSSGGSSGG-Chimp CFI the same measures were 0.08 fold and -0.03 fold.
For Const. No. 6: HSA-GGSSGG-hCFI; L307Y the same measures were 0.63 fold and 2.98 fold.
“Const. No. 71: HSA-GGSSGGSSGG-Gorilla CFI”: the iC3b ref fold in the data set with soluble human C3b amounted to 0.07 fold. For the same substance, the C4c ref fold in the data set with human C4b is 0.09 fold.
For Const. No. 33: HSA-GGSSGG-hCFI; H554F, the iC3b ref fold with soluble human C3b was found to be 1 fold. Further, the C4c ref fold with human C4b turned out to be 0.55 fold.
For “Const. No. 81: HSA-GGSSGG-hCFI; M186E; G187L; Y188S; Q189N; D190G; F191L; D193G” the same measures were 0.95 fold and 3.31 fold.
